Biological target: All other MMP-12 binders

B1: human MMP-12 catalytic domain (protein)
chain: GPVWRKHYITYRINNYTPDMNREDVDYAIRKAFQVWSNVTPLKFSKINTGMADILVVFARGAHGDFHAFDGKGGILAHAFGPGSGIGGDAHFDEDEFWTTHSGGTNLFLTAVHEIGHSLGLGHSSDPKAVMFPTYKYVDINTFRLSADDIRGIQSLYG
MMP-12 proteolytic activity, colorimetric assay (BIOMOL AK-402), VHH at 7 µM: did not inhibit MMP-12

From patent US20160280799
